Test results from patent publication US12590147 (OBLIQUE THERAPEUTICS, dated 2026).
Positions count from the first letter of the chain named.

Experiments:
[1] = molecular target: T1, OTV4-KLH (human; keyhole limpet, conjugated to the carrier via N-terminal Cys ; chain 1 pos 1: Cys chemically coupled to the KLH carrier (written C); linear peptide); experiment: monoclonal phage ELISA, replicate 2
T1 peptide: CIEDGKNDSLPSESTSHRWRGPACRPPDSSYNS
Description: (§1) Single *E. coli* clones were picked randomly selected during the biopanning step and cultured. Supernatants containing phage were prepared and purified. ELISA plates were coated with antigens conjugated to carriers or carriers alone (control), followed by washing, blocking, washing and addition of purified phage. After additional washing, bound phage was detected using anti-phage-HRP antibody.
(§2) This example describes the production of a monoclonal antibody by phage display. The phage library used in this case was a commercially available human naïve LiAb-Fab library (high diversity of 2×10E^10 variants). After 4 rounds of biopanning and ELISA tests, 80 clones were selected and 5 different sequences were identified within this group of phage clones, represented by R4P1-C1, #1, #2, #3, and #4. Each of these phage clones were tested by ELISA for binding to each of the individual peptides OTV3, OTV4, and OTV5 each coupled to either BSA, OVA or KLH (a total of 9 peptide-conjugates). This is an important confirmation step to ensure clone specificity because due to their nature phages can sometimes bind unspecifically. In the ELISA tests (monoclonal phage ELISA tests) one phage Fab clone, R4P1-C1, bound specifically and strongly to all three of the peptides (all nine of the peptide-carrier conjugates), whereas the other phage Fab clones appeared to be non-specific binders (see Table GG below, all phages were tested at the same concentration).

[2] = molecular target: T2, OTV3-KLH (human; keyhole limpet, conjugated to the carrier via N-terminal Cys ; chain 1 pos 1: Cys chemically coupled to the KLH carrier (written C); linear peptide); experiment: monoclonal phage ELISA, replicate 2
T2 peptide: T1 peptide with C24S
Description: as §1, §2

[3] = molecular target: T3, OTV3-BSA (human; bovine, conjugated to the carrier via N-terminal Cys); experiment: monoclonal phage ELISA, replicate 2
T3 sequence (P02769 25-607 limits assumed): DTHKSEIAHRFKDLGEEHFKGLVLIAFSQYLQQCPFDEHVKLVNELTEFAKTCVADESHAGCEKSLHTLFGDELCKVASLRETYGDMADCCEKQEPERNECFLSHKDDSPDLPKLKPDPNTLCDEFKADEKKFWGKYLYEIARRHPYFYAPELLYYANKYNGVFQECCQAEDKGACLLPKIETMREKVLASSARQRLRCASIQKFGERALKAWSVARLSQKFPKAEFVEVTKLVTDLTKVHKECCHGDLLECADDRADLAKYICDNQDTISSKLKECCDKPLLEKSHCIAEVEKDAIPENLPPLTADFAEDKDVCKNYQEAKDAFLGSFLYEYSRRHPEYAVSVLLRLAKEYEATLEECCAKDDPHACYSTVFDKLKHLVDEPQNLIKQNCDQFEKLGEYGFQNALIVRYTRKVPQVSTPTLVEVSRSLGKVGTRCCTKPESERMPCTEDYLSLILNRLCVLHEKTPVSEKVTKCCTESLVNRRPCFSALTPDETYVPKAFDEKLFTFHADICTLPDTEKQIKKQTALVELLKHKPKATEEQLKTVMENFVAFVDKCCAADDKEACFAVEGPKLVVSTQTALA
Description: as §1, §2

[4] = molecular target: T4, OTV4-BSA (human; bovine, conjugated to the carrier via N-terminal Cys); experiment: monoclonal phage ELISA, replicate 2
T4 sequence (P02769 25-607 limits assumed): as above
Description: as §1, §2

[5] = molecular target: T5, OTV5-OVA (human, UniProt P01012 2-386 (chicken entry), (Pra-) at the N-terminus; C-terminal amide (-CONH2); cyclic; conjugated to the carrier via N-terminal Cys as stated in Example 4); experiment: monoclonal phage ELISA, replicate 2
T5 sequence (peptide): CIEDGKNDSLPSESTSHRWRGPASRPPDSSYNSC
T5 sequence: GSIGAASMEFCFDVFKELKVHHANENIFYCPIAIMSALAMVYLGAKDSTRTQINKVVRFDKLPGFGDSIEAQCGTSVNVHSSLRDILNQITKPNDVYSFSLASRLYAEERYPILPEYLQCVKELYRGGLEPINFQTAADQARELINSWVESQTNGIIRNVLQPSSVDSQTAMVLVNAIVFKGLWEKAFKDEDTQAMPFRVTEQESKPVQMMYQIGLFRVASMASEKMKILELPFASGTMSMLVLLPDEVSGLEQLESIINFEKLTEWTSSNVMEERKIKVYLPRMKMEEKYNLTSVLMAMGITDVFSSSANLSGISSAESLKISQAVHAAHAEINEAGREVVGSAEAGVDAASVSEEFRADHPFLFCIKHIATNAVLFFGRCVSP
Description: as §1, §2

[6] = molecular target: T6, OTV5-BSA (human; bovine, (Pra-) at the N-terminus; C-terminal amide (-CONH2); cyclic; conjugated to the carrier via N-terminal Cys as stated in Example 4); experiment: monoclonal phage ELISA, replicate 2
T6 sequence (P02769 25-607 limits assumed): as the sequence (P02769 25-607 limits assumed) above
Description: as §1, §2

[7] = molecular target: T7, OTV5-KLH (human; keyhole limpet, (Pra-) at the N-terminus; C-terminal amide (-CONH2); cyclic; conjugated to the carrier via N-terminal Cys as stated in Example 4 ; chain 1: propargyl group (Pra-) on the N-terminus before Cys1, not …); experiment: monoclonal phage ELISA, replicate 2
T7 peptide: T5 sequence (peptide)
Description: as §1, §2

[8] = molecular target: T8, OTV4-OVA (human, UniProt P01012 2-386 (chicken entry), conjugated to the carrier via N-terminal Cys); experiment: monoclonal phage ELISA, replicate 2
T8 sequence (peptide): T1 peptide
T8 sequence: T5 sequence
Description: as §1, §2

[9] = molecular target: T9, OTV3-OVA (human, UniProt P01012 2-386 (chicken entry), conjugated to the carrier via N-terminal Cys); experiment: monoclonal phage ELISA, replicate 2
T9 sequence (peptide): T1 peptide with C24S
T9 sequence: T5 sequence
Description: as §1, §2

[10] = molecular target: T1, OTV4-KLH; experiment: monoclonal phage ELISA, replicate 1
Description: as §1, §2

[11] = molecular target: T2, OTV3-KLH; experiment: monoclonal phage ELISA, replicate 1
Description: as §1, §2

[12] = molecular target: T3, OTV3-BSA; experiment: monoclonal phage ELISA, replicate 1
Description: as §1, §2

[13] = molecular target: T4, OTV4-BSA; experiment: monoclonal phage ELISA, replicate 1
Description: as §1, §2

[14] = molecular target: T5, OTV5-OVA; experiment: monoclonal phage ELISA, replicate 1
Description: as §1, §2

[15] = molecular target: T6, OTV5-BSA; experiment: monoclonal phage ELISA, replicate 1
Description: as §1, §2

[16] = molecular target: T7, OTV5-KLH; experiment: monoclonal phage ELISA, replicate 1
Description: as §1, §2

[17] = molecular target: T8, OTV4-OVA; experiment: monoclonal phage ELISA, replicate 1
Description: as §1, §2

[18] = molecular target: T9, OTV3-OVA; experiment: monoclonal phage ELISA, replicate 1
Description: as §1, §2

B1: R4P1-C1 (phage Fab clone) (Fab, V domains shown)
VH: QVQLQQSGPGLVKPSQTLSLTCAISGDSVSSNSAAWNWIRQSPSRGLEWLGRTYYRSKWYNDYAVSVKSRITINPDTSKNQFSLQLNSVTPEDTAVYYCARDDYDPVGMYAFDIWGQGTLVTVSS
VL: LPVLTQPPSASGTPGQRVTISCSGSSSNIGSNTVNWYQQLPGTAPKLLIYRNTQRPSGVPDRFSGSKSGTSASLAISGLQSEDEADYYCEAWDDSMRGAAFGGGTQLTVL
notes: also called phage clone R4P1-C1
Question: What does the source list for B1?
Answer: ELISA signal [1]: 2.51; ELISA signal [2]: 2.94; ELISA signal [3]: 2.65; ELISA signal [4]: 2.8; ELISA signal [5]: 2.49; ELISA signal [6]: 2.56; ELISA signal [7]: 2.58; ELISA signal [8]: 2.78; ELISA signal [9]: 2.72; ELISA signal [10]: 2.81; ELISA signal [11]: 3.13; ELISA signal [12]: 2.87; ELISA signal [13]: 2.95; ELISA signal [14]: 2.61; ELISA signal [15]: 2.63; ELISA signal [16]: 2.74; ELISA signal [17]: 2.84; ELISA signal [18]: 2.85
